# Results published in patent US20240240160A1, “NOVEL OLIVETOL SYNTHASES FOR C[…]” (priority 2021, published 2024).
# Tested on: E. coli derivative strain which overexpressed an acyl-CoA synthetase (fadD) gene and expressed an olivetolic acid cyclase (OAC) from Cannabis sativa
# Assay: OL, OLA and PDAL production in E. coli from plasmid-expressed Type-III PKS genes
# Type: cell-based
# Conditions: gene on plasmid; for Total: OL + OLA + PDAL; for OL / OLA / PDAL: constitutive promoter, culture spiked with 4 mM hexanoic acid
# Experimental: To test olivetolic acid production in E. coli, strains comprising a putative OLS gene and an OAC gene from C. sativa were inoculated in multi-well plates containing LB supplemented with 1% glucose and appropriate concentrations of antibiotics. After 6 hours of cultivation at 32° C., the cells were transferred with a 10% inoculum to a P-limited seed medium (see Table 2) and cultivated for ˜18 hours at 32° ° C. to reach an OD of 2.0-4.0. The cultures were transferred with a 20% inoculum in a P-minimal medium (see Table 3) supplemented with 2% glucose and appropriate concentrations of antibiotics. After 3 hours of cultivation at 32° C., the culture was spiked with 4 mM hexanoic acid (˜OD 1.5-2.0). The resulting cultures were then harvested at either 3 hours or 21 hours post hexanoic acid spike; a final OD was taken. 300 μL of butyl acetate containing 500 mg/L undecanoic acid was added to each multi-well plate. The plates were then vortexed for 30 minutes at 1500 rpm and centrifuged for 10 minutes at 4500 rpm. 50 μL of organic layer was transferred to a 96-well plate and derivatized with 50 μL of N,O-Bis(trimethylsilyl)trifluoroacetamide (BSTFA). The plate was then incubated at room temperature for 2 hours to allow for complete derivatization. The samples were then run on GC-FID for analytical quantification of olivetolic acid (OLA), olivetol (OL), PDAL, and hexanoic acid.
# Olivetol, PDAL, OLA, HTAL, CBGA and combinations thereof were analyzed by LCMS or LCMS/MS methods using C18 reversed phase chromatography coupled to either EXACTIVE™ (ThermoFisher) or QTRAP® 4500 (Sciex) mass spectrometers.
# For reversed phase LCMS, compounds were identified by their LC retention times and MRM transitions specific to the compounds. LCMS/MS analysis was conducted on a Shimadzu UHPLC system coupled with AB Sciex QTRAP 4500 mass spectrometer. Agilent Eclipse XDB C18 column (4.6×3.0 mm, 1.8 μm) was used with a 1-min gradient elution at 1 mL/min using water containing 0.1% ammonia acetate as mobile phase A and 90% methanol containing 0.1% ammonia acetate as mobile phase B. The LC column temperature was maintained at 45° C. Negative ionization mode was used for all the analytes.
# The genes for 20 Type-III PKS enzymes were codon optimized for E. coli and cloned under control of a constitutive promoter into an expression vector (p15a replicon, carbenicillin resistance marker). The 20 plasmids were transformed into an E. coli derivative strain which overexpressed an acyl-CoA synthetase (fadD) gene and expressed an olivetolic acid cyclase (OAC) from Cannabis sativa.
# The in vivo assay procedure and analytical methods were performed as described above.
Molecule,Total,OL,OLA,PDAL
"XP_020572025.1: Type-III PKS enzyme from Phalaenopsis equestris (protein, listed as Phalaenopsis equestris, (1)..(393) XP_020572025.1) MPSFPSVKKAPTAEGFASILAIGRANPENFIEQSAYPDFFFRVTNSEHLVDLKKKFQRICDKTAIRKRHFVWNEEFLTANPCFSTFMDKSLNVRQEVAIREIPKLGAKAATKAIEDWGQPKSRITHLIFCTTSGMDLPGADYQLTQILGLNPNVERVMLYQQGCFAGGTTLRLAKCLAESRKGARVLVVCAETTTVLFRAPSEEHQDDLVTQALFADGASAVIAVIVGADPDEAADERASFVIVSASQVLLPDSAGAIGGHVSEGGLLATLHRDVPQIVSKNVGKCLEEAFTPFGISDWNSIFWVPHPGGRAILDQVEERVGLKPEKLSVSRHVLAEYGNMSSVCVHFALDEMRKRSAKEGKATTGEGLEWGVLFGFGPGLTVETVVLQSVPI",0 µM,0 µM,0 µM,0 µM
"AFU07710.1: Type-III PKS enzyme from Paphiopedilum × areeanum (protein, Paphiopedilum x areeanum; (1)..(393) AFU07710.1) MPGLENRKKVEVPKRAKDLATIMAIGRANPPNAVEQSTFPDFYFRVTNNEHLVGLMKKFQCICEKTVIRRRHFVWDEEILNANPCLRTHMEPSFNVRQKIAVAEIPKMGAEAASRAIKEWGQPKSRITYLIFYTMSGMDLPVTDYKLTRILNLNLNVYQVMLYQWDCIAGGTILCWAKCSAESQKGTRVLVVSSETTTVLVRAPSEDYHDDLVTQDLFGDGASALIVGADPDEEAKERPIFTIVSTSQVVLPDSDGVIGGHLSEGGLMATLHRDVALIISKNVSKCLEEAFVTLGISDWNSIFWAPHPCRRAILDQVEERVGLKPEKLWASRHVLAEFGNMTSVCVHFVLDEIHNRSTQGKTTTGEGFDWGVLFGFGPGLIVETVILRSVPLN",0 µM,0 µM,0 µM,0 µM
"AFU07709.1: Type-III PKS enzyme from Paphiopedilum armeniacum (protein, listed as Paphiopedilum armeniacum, (1)..(394) AFU07709.1) MPGLENRKKVEAPKREEGLATIMAIGRANPPNAMEQSTFPDFYFRVTNSEHMVGLKKKFQRICEKTAIRRRHFVWNEEILNANPCMCTHMEPSLNVGQKIVVAEIPKLGAEAASRAIEVWGQPKSRITHLIFCTTSSMDLLGADYKITRILGLNLNVQRGMLYQQGCFAGGTVLRLAKCFTESQKGTRVLVVCSENAIILVRASSEDYQDDLVTQALFADGASALIVGEDPDEEAKERPIFTIISTTHVILPDSDGAIGGHLGEGGLMATLQRDVPFIISKNVNTCLEESFAPLVISDWNSVFWAPHSGGRAILDQVEERAGLKPEKLWASRHVLAKYGNMSSVCVHFVLDEIRKRSTKEGKTTTGEGFDWGVLFGFGLGLTVETVILRSVPLN",0 µM,0 µM,0 µM,0 µM
"A0A0D9WZ61: Type-III PKS enzyme from Leersia perrieri (protein, listed as Leersia perrieri, (1)..(402) ProtKB - A0A0D9WZ61) MAPVPANGAATATATTQEIRRAQRADGPATVLAIGTANPETYVSQDEYADYYFRITKSEHLPELKDKLRRICNKSGIDKRFMYVNEDVMEAHPEFADRNQSSLNARVEIASKAVPELAAAASAKAIAEWGRPATDITHLIFSTYSGVKAPSGDRLLASLLGLRPNVSRTTLSLHGCYGGGRALQLAKELAENNRGARVLVACAEMTLIAFYGPEVGCNDTIVGQALFGDGSGAVIVGADPVDAAGERPLFEMAFASQTTVPDSEGAITMQHTKGGMDYHIGSGIPEMLAGNIERCLADAFDSIGVAADWKDLFWAVHPGGRRILDLIEEALGLDNGAMASRQVLREFGNMSGTTVIFVLNELRRRFKANGAEGADWGALMAFGPGVTIETMLLRVAAGLKGN",34 µM,34 µM,0 µM,0 µM
"PKU71375.1: Type-III PKS enzyme from Dendrobium catenatum (protein, listed as Dendrobium catenatum, (1)..(382) PKU71375.1) MAQRADGSASILAIGKATPENFLEQSTYPDYFFRVTNSQHLIDLKKKFQRICDKTSIRKRHFILNEELITKNPCLSKFMENSINTRLEIYAKEIQKLAVEAATKAIQEWGQPKSCITHLIFSTLSDPGLPCGDYHLLQTLGLSPNIERVVILQHGCFAGGTMLRLAKCLAESHKGARVLVVSAETTTMLFRGPSEEHQEDLITQALFADGASALIVGVNPNETIGERASFVITSASQVILPNSSHAITGHLSEGGIKATIHKDVPNLLSNNIGKILEEAFTPLGISNWNSIFWVVHPGGRAILDQLEERVGLKPEKLMISRHVLAEYGNLMGVCVHFVLDEMRKRSIDEGNTTTGEGLEWGVLLGFGLGVTIETIVLQSVSL",0 µM,0 µM,0 µM,0 µM
"PKA56805.1: Type-III PKS enzyme from Apostasia shenzhenica (protein, listed as Apostasia shenzhenica, (1)..(393) PKA56805.1) MPGVEAVAQNISPARSDGLAAILAIGRANPPNIVEQSSFADLYFRLHNSEHLVDLKKKLQRICDRTAIRKRHFVWDEELLMANPCLRTVTEPSLNARQKVAITEIPKLGAAAATNAIAEWGRPKSDITHLIFCTTSGMDLPGADYQLIRLLGLNDNIQRIMLYQQGCFAGGTVLRLAKVLAESRRSARVLIVCAETTTVLVRSPSVENQDDLVTQALFADGASALIVGADPNAGEKPVFSVFSTSQVLLPDSDGAIGGHVGENGLTATLHRDVPAVISKNVGKCLEEAFTPLGISDWNSIFWAAHPGGRAILDQVEERVGLKPEKMWASRHVLAEYGNMSSVSVHFALDEIRRRSAKEGKATTGDGFEWGVLFGFGPGLTVETVVLRSAPISA",37 µM,27 µM,10 µM,0 µM
"A0A0D9W1R8: Type-III PKS enzyme from Leersia perrieri (protein, listed as Leersia perrieri, (1)..(402) ProtKB - A0A0D9W1R8) MGSQGEYYNKEGRGQAAILGIGSAVPPYELPQSSFPDYYFDVSNSNHRQDLKAKFAKICERTMIEKRCVYMSEEFLRSNPSVTAYSSPSIDVRQRLTDATVPELGAAAARVAIADWGRPASEISHLVMCSTVSGCMPGADYEVVKLLGLPLSTKRCMMYHIGCHGGGTVLRIAKDIAENNPGARVLVVCSEVISMALRGPSDSNMGNLVGQALFGDAGAAVVVGTDPVESCGERALFEMVAAMQDIIPDTEEMVAKLREDGLLYSLHRDVPVHIEANIEAIVNKSGVGAKAADWNEDVFWLVHPGGRDILDRVARRLGLRHDKVEVSREVMRKHGNTLSSCVVIAMEEMRRRSAERGMGTAGEGLEWGLLFGFGPGLTVETILLRAPLTHPPPCAHAAVRPQ",0 µM,0 µM,0 µM,0 µM
"AAZ32093.1: Type-III PKS enzyme from Oncidium Gower Ramsey (protein, Oncidium hybrid cultivar; (1)..(391) AAZ32093.1, Type-III PKS enzyme from Oncidium Gower Ramsey) MPSLESIKNAPKTDGFASILAIGSANPENIIEQSTYPDFFFHLTNSEHLVDLKNKFQRICDKTAIRKRHFAWNEELLTANPCLRTFMDNSLNVRQEFVIREIPKLGAQAATKAIQEWGQSKSRITHLIFSTTSGMDLPGADYQLTQILGLNPNIERVMLYHQGCFAGGTTLRLTKSLAESRKGARVLVVCAETTSALTFRAPSEEHQDDLVVQALFGDGASALIVGADPDEAADERASFIIVSTSQVLLSDSAGAIGGHLSEGGLIVTLHRDVPQIVSKNVGNCLKEAFTPLGISDWNSIFWVPHPGGPAILDQIEERVGLNPEKLIISRHMLAEYGNMLGVSVHFALDEMRKRSAKEGKATTGEGLDWGVLLGIGPGITVETVVLHSVRI",16 µM,16 µM,0 µM,0 µM
"B1Q2B6: Cannabis sativa olivetol synthase (OLS), 3,5,7-trioxododecanoyl-CoA synthase (protein, listed as Cannabis sativa, (1)..(385) B1Q2B6 OLIS_CANSA 3,5,7-trioxododecanoyl-CoA synthase) MNHLRAEGPASVLAIGTANPENILLQDEFPDYYFRVTKSEHMTQLKEKFRKICDKSMIRKRNCFLNEEHLKQNPRLVEHEMQTLDARQDMLVVEVPKLGKDACAKAIKEWGQPKSKITHLIFTSASTTDMPGADYHCAKLLGLSPSVKRVMMYQLGCYGGGTVLRIAKDIAENNKGARVLAVCCDIMACLFRGPSESDLELLVGQAIFGDGAAAVIVGAEPDESVGERPIFELVSTGQTILPNSEGTIGGHIREAGLIFDLHKDVPMLISNNIEKCLIEAFTPIGISDWNSIFWITHPGGKAILDKVEEKLHLKSDKFVDSRHVLSEHGNMSSSTVLFVMDELRKRSLEEGKSTTGDGFEWGVLFGFGPGLTVERVVVRSVPIKY",1072 µM,324 µM,279 µM,470 µM
